Laboratory results: patent publication US12233132B2, “Polyoxazoline-lipid conjugates and lipid nanoparticles and pharmaceutical compositions including same” (Serina Therapeutics, Inc., priority 2021, dated 2025)

Key:
[1] = Hydrolysis kinetics of POZ-lipid conjugates in human plasma; type: in vitro ADME; details: for Half-Life 50% Human Plasma: 50% human plasma diluted in PBS, 37° C.; for rate of hydrolysis in plasma, ester versus ether linkages: compared with ether linkages (Compounds 17a, 17b and 17c)
Procedure: (§1) These solutions were spiked into the PBS or rat or human plasma media and allowed to incubate at 37° C. Samples were removed from hydrolysis media at different time intervals and quenched by addition of chilled 0.2% formic acid in methanol. […] The POZ-lipid conjugates were detected by UV absorption at 210 nm, and its breakdown and degradation metabolites were detected followed by mass spectrometry.

[2] = Hydrolysis kinetics of POZ-lipid conjugates in rat plasma; type: in vitro ADME; details: 50% rat plasma diluted in PBS, 37° C.
Procedure: as §1

Substance | Half-Life 50% Human Plasma [1] [h] | rate of hydrolysis in plasma, ester versus ether linkages [1] | Half-Life 50% Rat Plasma [2] [h]
PEOZ-(triazole-3-propionyl-DMG) 2K [Compound 19c] | 7 | faster rate | <1
PEOZ 2K DMG-(triazole-2-propionate) [Compound 19b] | 5 | faster rate | 1
